# Data from the supplement of paper PMC5998384.
# Columns and labels:
# [1] = test system: HeLa Kyoto; test: melting temperature (median over replicates), in situ; higher = more thermally stable
# [2] = test system: HeLa Kyoto; test: thermal stability score vs G1/S (z-score of summed log2 fold changes over temperatures); higher = more thermally stable than in G1/S
# [3] = test system: HeLa Kyoto; test: solubility in G1/S (NP-40 vs SDS abundance) (log2 ratio); higher = more soluble; details: cell cycle stage: G1/S
# [4] = test system: HeLa Kyoto; test: solubility change mitosis vs G1/S (difference of NP-40 vs SDS log2 ratios) (log2 ratio difference); higher = more soluble in mitosis
# [5] = cell cycle stage: early G1 (4.5 h after nocodazole release)
# 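Throughout, for melting temperature (median over replicates), in situ: HeLa Kyoto cells synchronized by double thymidine or nocodazole block, proteins quantified by TMT10plex mass spectrometry, three independent biological replicates.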
# 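Throughout, for solubility change mitosis vs G1/S (difference of NP-40 vs SDS log2 ratios): synchronized HeLa Kyoto cells (double thymidine block for G1/S, nocodazole release for mitosis), protein amounts in NP-40 versus SDS lysates quantified by mass spectrometry, three biological replicates.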
# 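Throughout, for solubility in G1/S (NP-40 vs SDS abundance): HeLa Kyoto cells arrested at G1/S by double thymidine block, proteins quantified by TMT10plex mass spectrometry in mild NP-40 versus SDS extracts, three biological replicates.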
# 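Throughout, for thermal stability score vs G1/S (z-score of summed log2 fold changes over temperatures): synchronized HeLa Kyoto cells, proteins quantified by TMT10plex mass spectrometry, three biological replicates, mitosis taken 0.5 h after nocodazole release, G1/S directly after double thymidine block.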
Sequence,melting temperature ([1]; cell cycle stage: G1/S) [°C],melting temperature ([1]; cell cycle stage: mitosis) [°C],"thermal stability score [2, 5]",thermal stability score ([2]; cell cycle stage: mitosis),solubility in G1/S (log2) [3],solubility change mitosis (log2) [4]
MNSIKNVPARVLSRRPGHSLEAEREQFDKTQAISISKAINTQEAPVKEKHARRIILGTHHEKGAFTFWSYAIGLPLPSSSILSWKFCHVLHKVLRDGHPNVLHDCQRYRSNIREIGDLWGHLHDRYGQLVNVYTKLLLTKISFHLKHPQFPAGLEVTDEVLEKAAGTDVNNIFQLTVEMFDYMDCELKLSESVFRQLNTAIAVSQMSSGQCRLAPLIQVIQDCSHLYHYTVKLLFKLHSCLPADTLQGHRDRFHEQFHSLRNFFRRASDMLYFKRLIQIPRLPEGPPNFLRASALAEHIKPVVVIPEEAPEDEEPENLIEISTGPPAGEPVVVADLFDQTFGPPNGSVKDDRDLQIESLKREVEMLRSELEKIKLEAQRYIAQLKSQVNALEGELEEQRKQKQKALVDNEQLRHELAQLRAAQLEGERSQGLREEAERKASATEARYNKLKEKHSELVHVHAELLRKNADTAKQLTVTQQSQEEVARVKEQLAFQVEQVKRESELKLEEKSDQLEKLKRELEAKAGELARAQEALSHTEQSKSELSSRLDTLSAEKDALSGAVRQREADLLAAQSLVRETEAALSREQQRSSQEQGELQGRLAERESQEQGLRQRLLDEQFAVLRGAAAEAAGILQDAVSKLDDPLHLRCTSSPDYLVSRAQEALDAVSTLEEGHAQYLTSLADASALVAALTRFSHLAADTIINGGATSHLAPTDPADRLIDTCRECGARALELMGQLQDQQALRHMQASLVRTPLQGILQLGQELKPKSLDVRQEELGAVVDKEMAATSAAIEDAVRRIEDMMNQARHASSGVKLEVNERILNSCTDLMKAIRLLVTTSTSLQKEIVESGRGAATQQEFYAKNSRWTEGLISASKAVGWGATQLVEAADKVVLHTGKYEELIVCSHEIAASTAQLVAASKVKANKHSPHLSRLQECSRTVNERAANVVASTKSGQEQIEDRDTMDFSGLSLIKLKKQEMETQVRVLELEKTLEAERMRLGELRKQHYVLAGASGSPGEEVAIRPSTAPRSVTTKKPPLAQKPSVAPRQDHQLDKKDGIYPAQLVNY [HIP1R],50,49.5,-0.263,0.371,-0.0581,-0.0177
MNSMKTEENKSFSAMEDDQRTRPEVSKDTVMKQTHADTPVDHCLSGIRKCSSTFKLKSEVNKHETALEMQNPNLNNKECCFTFTLNGNSRKLDRSVFTAYGKPSESIYSALSANDYFSERIKNQFNKNIIVYEEKTIDGHINLGMPLKCLPSDSHFKITFGQRKSSKEDGHILRQCENPNMECILFHVVAIGRTRKKIVKINELHEKGSKLCIYALKGETIEGALCKDGRFRSDIGEFEWKLKEGHKKIYGKQSMVDEVSGKVLEMDISKKKALQQKDIHKKIKQNESATDEINHQSLIQSKKKVHKPKKDGETKDVEHSREQILPPQDLSHYIKDKTRQTIPRIRNYYFCSLPRKYRQINSQVRRRPHLGRRYAINLDVQKEAINLLKNYQTLNEAIMHQYPNFKEEAQWVRKYFREEQKRMNLSPAKQFNIYKKDFGKMTANSVSVATCEQLTYYSKSVGFMQWDNNGNTGNATCFVFNGGYIFTCRHVVHLMVGKNTHPSLWPDIISKCAKVTFTYTEFCPTPDNWFSIEPWLKVSNENLDYAILKLKENGNAFPPGLWRQISPQPSTGLIYLIGHPEGQIKKIDGCTVIPLNERLKKYPNDCQDGLVDLYDTTSNVYCMFTQRSFLSEVWNTHTLSYDTCFSDGSSGSPVFNASGKLVALHTFGLFYQRGFNVHALIEFGYSMDSILCDIKKTNESLYKSLNDEKLETYDEEKGKQESSLQDHQIEPMEC [FAM111B],46.9,50.3,2.69,4.09,-0.274,-7.96e-05
MNTADQARVGPADDGPAPSGEEEGEGGGEAGGKEPAADAAPGPSAAFRLMVTRREPAVKLQYAVSGLEPLAWSEDHRVSVSTARSIAVLELICDVHNPGQDLVIHRTSVPAPLNSCLLKVGSKTEVAECKEKFAASKDPTVSQTFMLDRVFNPEGKALPPMRGFKYTSWSPMGCDANGRCLLAALTMDNRLTIQANLNRLQWVQLVDLTEIYGERLYETSYRLSKNEAPEGNLGDFAEFQRRHSMQTPVRMEWSGICTTQQVKHNNECRDVGSVLLAVLFENGNIAVWQFQLPFVGKESISSCNTIESGITSPSVLFWWEYEHNNRKMSGLIVGSAFGPIKILPVNLKAVKGYFTLRQPVILWKEMDQLPVHSIKCVPLYHPYQKCSCSLVVAARGSYVFWCLLLISKAGLNVHNSHVTGLHSLPIVSMTADKQNGTVYTCSSDGKVRQLIPIFTDVALKFEHQLIKLSDVFGSVRTHGIAVSPCGAYLAIITTEGMINGLHPVNKNYQVQFVTLKTFEEAAAQLLESSVQNLFKQVDLIDLVRWKILKDKHIPQFLQEALEKKIESSGVTYFWRFKLFLLRILYQSMQKTPSEALWKPTHEDSKILLVDSPGMGNADDEQQEEGTSSKQVVKQGLQERSKEGDVEEPTDDSLPTTGDAGGREPMEEKLLEIQGKIEAVEMHLTREHMKRVLGEVYLHTWITENTSIPTRGLCNFLMSDEEYDDRTARVLIGHISKKMNKQTFPEHCSLCKEILPFTDRKQAVCSNGHIWLRCFLTYQSCQSLIYRRCLLHDSIARHPAPEDPDWIKRLLQSPCPFCDSPVF [GTF3C4],49.4,49.9,1.42,3.08,-0.0178,-0.0904
MPAESGKRFKPSKYVPVSAAAIFLVGATTLFFAFTCPGLSLYVSPAVPIYNAIMFLFVLANFSMATFMDPGIFPRAEEDEDKEDDFRAPLYKTVEIKGIQVRMKWCATCRFYRPPRCSHCSVCDNCVEEFDHHCPWVNNCIGRRNYRYFFLFLLSLTAHIMGVFGFGLLYVLYHIEELSGVRTAVTMAVMCVAGLFFIPVAGLTGFHVVLVARGRTTNEQVTGKFRGGVNPFTNGCCNNVSRVLCSSPAPRYLGRPKKEKTIVIRPPFLRPEVSDGQITVKIMDNGIQGELRRTKSKGSLEITESQSADAEPPPPPKPDLSRYTGLRTHLGLATNEDSSLLAKDSPPTPTMYKYRPGYSSSSTSAAMPHSSSAKLSRGDSLKEPTSIAESSRHPSYRSEPSLEPESFRSPTFGKSFHFDPLSSGSRSSSLKSAQGTGFELGQLQSIRSEGTTSTSYKSLANQTRNGSLSYDSLLTPSDSPDFESVQAGPEPDPPLGYTSPFLSARLAQQREAERHPRLVPTGPTHREPSPVRYDNLSRHIVASLQEREKLLRQSPPLPGREEEPGLGDSGIQSTPGSGHAPRTSSSSDDSKRSPLGKTPLGRPAVPRFGKPDGLRGRGVGSPEPGPTAPYLGRSMSYSSQKAQPGVSETEEVALQPLLTPKDEVQLKTTYSKSNGQPKSLGSASPGPGQPPLSSPTRGGVKKVSGVGGTTYEISV [ZDHHC5],59.1,62.7,-2.84,1.5,-0.172,0.124
MPAGPVQAVPPPPPVPTEPKQPTEEEASSKEDSAPSKPVVGIIYPPPEVRNIVDKTASFVARNGPEFEARIRQNEINNPKFNFLNPNDPYHAYYRHKVSEFKEGKAQEPSAAIPKVMQQQQQTTQQQLPQKVQAQVIQETIVPKEPPPEFEFIADPPSISAFDLDVVKLTAQFVARNGRQFLTQLMQKEQRNYQFDFLRPQHSLFNYFTKLVEQYTKILIPPKGLFSKLKKEAENPREVLDQVCYRVEWAKFQERERKKEEEEKEKERVAYAQIDWHDFVVVETVDFQPNEQGNFPPPTTPEELGARILIQERYEKFGESEEVEMEVESDEEDDKQEKAEEPPSQLDQDTQVQDMDEGSDDEEEGQKVPPPPETPMPPPLPPTPDQVIVRKDYDPKASKPLPPAPAPDEYLVSPITGEKIPASKMQEHMRIGLLDPRWLEQRDRSIREKQSDDEVYAPGLDIESSLKQLAERRTDIFGVEETAIGKKIGEEEIQKPEEKVTWDGHSGSMARTQQAAQANITLQEQIEAIHKAKGLVPEDDTKEKIGPSKPNEIPQQPPPPSSATNIPSSAPPITSVPRPPTMPPPVRTTVVSAVPVMPRPPMASVVRLPPGSVIAPMPPIIHAPRINVVPMPPSAPPIMAPRPPPMIVPTAFVPAPPVAPVPAPAPMPPVHPPPPMEDEPTSKKLKTEDSLMPEEEFLRRNKGPVSIKVQVPNMQDKTEWKLNGQVLVFTLPLTDQVSVIKVKIHEATGMPAGKQKLQYEGIFIKDSNSLAYYNMANGAVIHLALKERGGRKK [SF3A1],49.8,50.2,-0.95,1.92,-0.0723,0.18
MPALPLDQLQITHKDPKTGKLRTSPALHPEQKADRYFVLYKPPPKDNIPALVEEYLERATFVANDLDWLLALPHDKFWCQVIFDETLQKCLDSYLRYVPRKFDEGVASAPEVVDMQKRLHRSVFLTFLRMSTHKESKDHFISPSAFGEILYNNFLFDIPKILDLCVLFGKGNSPLLQKMIGNIFTQQPSYYSDLDETLPTILQVFSNILQHCGLQGDGANTTPQKLEERGRLTPSDMPLLELKDIVLYLCDTCTTLWAFLDIFPLACQTFQKHDFCYRLASFYEAAIPEMESAIKKRRLEDSKLLGDLWQRLSHSRKKLMEIFHIILNQICLLPILESSCDNIQGFIEEFLQIFSSLLQEKRFLRDYDALFPVAEDISLLQQASSVLDETRTAYILQAVESAWEGVDRRKATDAKDPSVIEEPNGEPNGVTVTAEAVSQASSHPENSEEEECMGAAAAVGPAMCGVELDSLISQVKDLLPDLGEGFILACLEYYHYDPEQVINNILEERLAPTLSQLDRNLDREMKPDPTPLLTSRHNVFQNDEFDVFSRDSVDLSRVHKGKSTRKEENTRSLLNDKRAVAAQRQRYEQYSVVVEEVPLQPGESLPYHSVYYEDEYDDTYDGNQVGANDADSDDELISRRPFTIPQVLRTKVPREGQEEDDDDEEDDADEEAPKPDHFVQDPAVLREKAEARRMAFLAKKGYRHDSSTAVAGSPRGHGQSRETTQERRKKEANKATRANHNRRTMADRKRSKGMIPS [ASCC2],52.1,49.5,0.236,1.02,-0.248,0.0692
MPALSTGSGSDTGLYELLAALPAQLQPHVDSQEDLTFLWDMFGEKSLHSLVKIHEKLHYYEKQSPVPILHGAAALADDLAEELQNKPLNSEIRELLKLLSKPNVKALLSVHDTVAQKNYDPVLPPMPEDIDDEEDSVKIIRLVKNREPLGATIKKDEQTGAIIVARIMRGGAADRSGLIHVGDELREVNGIPVEDKRPEEIIQILAQSQGAITFKIIPGSKEETPSKEGKMFIKALFDYNPNEDKAIPCKEAGLSFKKGDILQIMSQDDATWWQAKHEADANPRAGLIPSKHFQERRLALRRPEILVQPLKVSNRKSSGFRKSFRLSRKDKKTNKSMYECKKSDQYDTADVPTYEEVTPYRRQTNEKYRLVVLVGPVGVGLNELKRKLLISDTQHYGVTVPHTTRARRSQESDGVEYIFISKHLFETDVQNNKFIEYGEYKNNYYGTSIDSVRSVLAKNKVCLLDVQPHTVKHLRTLEFKPYVIFIKPPSIERLRETRKNAKIISSRDDQGAAKPFTEEDFQEMIKSAQIMESQYGHLFDKIIINDDLTVAFNELKTTFDKLETETHWVPVSWLHS [MPP7],47.8,48.5,0.55,1.76,-0.0584,0.00867
MPAPTQLFFPLIRNCELSRIYGTACYCHHKHLCCSSSYIPQSRLRYTPHPAYATFCRPKENWWQYTQGRRYASTPQKFYLTPPQVNSILKANEYSFKVPEFDGKNVSSILGFDSNQLPANAPIEDRRSAATCLQTRGMLLGVFDGHAGCACSQAVSERLFYYIAVSLLPHETLLEIENAVESGRALLPILQWHKHPNDYFSKEASKLYFNSLRTYWQELIDLNTGESTDIDVKEALINAFKRLDNDISLEAQVGDPNSFLNYLVLRVAFSGATACVAHVDGVDLHVANTGDSRAMLGVQEEDGSWSAVTLSNDHNAQNERELERLKLEHPKSEAKSVVKQDRLLGLLMPFRAFGDVKFKWSIDLQKRVIESGPDQLNDNEYTKFIPPNYHTPPYLTAEPEVTYHRLRPQDKFLVLATDGLWETMHRQDVVRIVGEYLTGMHHQQPIAVGGYKVTLGQMHGLLTERRTKMSSVFEDQNAATHLIRHAVGNNEFGTVDHERLSKMLSLPEELARMYRDDITIIVVQFNSHVVGAYQNQE [PDP1],52.7,51.6,0.767,1.07,0.103,-0.0758
